T1: FcγRIIb (human, UniProt P31994 43-217)
T1 construct: extracellular domain; also called FcgRIIb; 2b; not shown: His tag at the C terminus
T1 sequence (looked up): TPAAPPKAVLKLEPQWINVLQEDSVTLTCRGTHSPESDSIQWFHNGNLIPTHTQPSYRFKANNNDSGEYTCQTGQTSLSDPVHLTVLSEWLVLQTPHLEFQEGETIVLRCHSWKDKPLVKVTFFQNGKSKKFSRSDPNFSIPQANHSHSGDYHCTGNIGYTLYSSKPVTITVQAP

B1: GpH7-A5/GpH7-B3 variant S298_09D/GpL16-k0 (antibody, human IgG1, kappa)
heavy 1: not shown
heavy 2: not shown
light: DIVMTQSPLSLPVTPGEPASISCQASESLVHSNRNTYLHWYLQKPGQSPQLLIYKVSNRFSGVPDRFSGSGSGTDFTLKISRVEAEDVGVYYCSQNTHVPPTFGQGTKVEIERTVAAPSVFIFPPSDEQLKSGTASVVCLLNNFYPREAKVQWKVDNALQSGNSQESVTEQDSKDSTYSLSSTLTLSKADYEKHKVYACEVTHQGLSSPVTKSFNRGEC
notes: He Ab: mutation only in the GpH7-B3 H chain; EU numbering; also called He Ab
B2: GpH7-A5/GpH7-B3 variant S298_18N/GpL16-k0 (antibody, human IgG1, kappa)
heavy 1: not shown
heavy 2: not shown
light: B1 light
notes: as for B1
B3: GpH7-A5/GpH7-B3 variant Y296_01G/GpL16-k0 (antibody, human IgG1, kappa)
heavy 1: not shown
heavy 2: not shown
light: B1 light
notes: as for B1
B4: GpH7-A5/GpH7-B3 variant Y296_19Q/GpL16-k0 (antibody, human IgG1, kappa)
heavy 1: not shown
heavy 2: not shown
light: B1 light
notes: as for B1
B5: GpH7-A5/GpH7-B3 variant Y296_06M/GpL16-k0 (antibody, human IgG1, kappa)
heavy 1: not shown
heavy 2: not shown
light: B1 light
notes: as for B1
B6: GpH7-A5/GpH7-B3 variant Y296_16H/GpL16-k0 (antibody, human IgG1, kappa)
heavy 1: not shown
heavy 2: not shown
light: B1 light
notes: as for B1
B7: GpH7-A5/GpH7-B3 variant Y296_12R/GpL16-k0 (antibody, human IgG1, kappa)
heavy 1: not shown
heavy 2: not shown
light: B1 light
notes: as for B1
B8: GpH7-A5/GpH7-B3 variant Y296_04F/GpL16-k0 (antibody, human IgG1, kappa)
heavy 1: not shown
heavy 2: not shown
light: B1 light
notes: as for B1
B9: GpH7-A5/GpH7-B3 variant Y296_03V/GpL16-k0 (antibody, human IgG1, kappa)
heavy 1: not shown
heavy 2: not shown
light: B1 light
notes: as for B1
B10: GpH7-A5/GpH7-B3 variant Y296_02A/GpL16-k0 (antibody, human IgG1, kappa)
heavy 1: not shown
heavy 2: not shown
light: B1 light
notes: as for B1
B11: GpH7-A5/GpH7-B3 variant S298_16H/GpL16-k0 (antibody, human IgG1, kappa)
heavy 1: not shown
heavy 2: not shown
light: B1 light
notes: as for B1
B12: GpH7-A5/GpH7-B3 variant Y296_14T/GpL16-k0 (antibody, human IgG1, kappa)
heavy 1: not shown
heavy 2: not shown
light: B1 light
notes: as for B1
B13: GpH7-A5/GpH7-B3 variant Y296_11K/GpL16-k0 (antibody, human IgG1, kappa)
heavy 1: not shown
heavy 2: not shown
light: B1 light
notes: as for B1
B14: GpH7-A5/GpH7-B3 variant Y296_07I/GpL16-k0 (antibody, human IgG1, kappa)
heavy 1: not shown
heavy 2: not shown
light: B1 light
notes: as for B1
B15: GpH7-A5/GpH7-B3 variant S298_14T/GpL16-k0 (antibody, human IgG1, kappa)
heavy 1: not shown
heavy 2: not shown
light: B1 light
notes: as for B1
B16: GpH7-A5/GpH7-B3 variant Y296_08L/GpL16-k0 (antibody, human IgG1, kappa)
heavy 1: not shown
heavy 2: not shown
light: B1 light
notes: as for B1
B17: GpH7-A5/GpH7-B3 variant S298_12R/GpL16-k0 (antibody, human IgG1, kappa)
heavy 1: not shown
heavy 2: not shown
light: B1 light
notes: as for B1
B18: GpH7-A5/GpH7-B3 variant Y296_10E/GpL16-k0 (antibody, human IgG1, kappa)
heavy 1: not shown
heavy 2: not shown
light: B1 light
notes: as for B1
B19: GpH7-A5/GpH7-B3 variant S298_11K/GpL16-k0 (antibody, human IgG1, kappa)
heavy 1: not shown
heavy 2: not shown
light: B1 light
notes: as for B1
B20: GpH7-A5/GpH7-B3 variant Y296_13S/GpL16-k0 (antibody, human IgG1, kappa)
heavy 1: not shown
heavy 2: not shown
light: B1 light
notes: as for B1
B21: GpH7-A5/GpH7-B3 variant Y296_18N/GpL16-k0 (antibody, human IgG1, kappa)
heavy 1: not shown
heavy 2: not shown
light: B1 light
notes: as for B1
B22: GpH7-A5/GpH7-B3 variant Y296_09D/GpL16-k0 (antibody, human IgG1, kappa)
heavy 1: not shown
heavy 2: not shown
light: B1 light
notes: as for B1
B23: GpH7-A5/GpH7-B3 variant S298_10E/GpL16-k0 (antibody, human IgG1, kappa)
heavy 1: not shown
heavy 2: not shown
light: B1 light
notes: as for B1

biological target: T2, FcγRIa (human, UniProt P12314 16-292); assay: SPR (Biacore), captured antibody, soluble FcγR; relative to GpH7-A5/GpH7-B3/GpL16-k0
T2 construct: extracellular domain; also called FcgRI; 1a; not shown: His tag at the C terminus
T2 sequence (P12314 16-292): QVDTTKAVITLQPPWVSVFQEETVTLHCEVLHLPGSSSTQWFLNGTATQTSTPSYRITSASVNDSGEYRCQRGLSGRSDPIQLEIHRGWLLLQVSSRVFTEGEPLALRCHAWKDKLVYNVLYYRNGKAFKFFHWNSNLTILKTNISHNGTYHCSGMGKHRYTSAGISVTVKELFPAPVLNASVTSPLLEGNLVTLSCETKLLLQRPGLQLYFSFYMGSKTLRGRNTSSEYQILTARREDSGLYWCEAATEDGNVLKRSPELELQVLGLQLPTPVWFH

He/Con_1a	Binder
106 relative, HeCon Ab = 100	B1
108 relative, HeCon Ab = 100	B2
103 relative, HeCon Ab = 100	B3
112 relative, HeCon Ab = 100	B4
104 relative, HeCon Ab = 100	B5
106 relative, HeCon Ab = 100	B6
106 relative, HeCon Ab = 100	B7
104 relative, HeCon Ab = 100	B8
104 relative, HeCon Ab = 100	B9
103 relative, HeCon Ab = 100	B10
109 relative, HeCon Ab = 100	B11
105 relative, HeCon Ab = 100	B12
105 relative, HeCon Ab = 100	B13
104 relative, HeCon Ab = 100	B14
107 relative, HeCon Ab = 100	B15
104 relative, HeCon Ab = 100	B16
109 relative, HeCon Ab = 100	B17
106 relative, HeCon Ab = 100	B18
109 relative, HeCon Ab = 100	B19
105 relative, HeCon Ab = 100	B20
106 relative, HeCon Ab = 100	B21
106 relative, HeCon Ab = 100	B22
108 relative, HeCon Ab = 100	B23

biological target: T1, FcγRIIb; assay: as above

He/Con_2b	Binder
48.3 relative, HeCon Ab = 100	B1
48.1 relative, HeCon Ab = 100	B2
79.3 relative, HeCon Ab = 100	B3
89.3 relative, HeCon Ab = 100	B4
87.8 relative, HeCon Ab = 100	B5
92.2 relative, HeCon Ab = 100	B6
79.5 relative, HeCon Ab = 100	B7
99.2 relative, HeCon Ab = 100	B8
79.3 relative, HeCon Ab = 100	B9
82 relative, HeCon Ab = 100	B10
63.5 relative, HeCon Ab = 100	B11
88.2 relative, HeCon Ab = 100	B12
72.8 relative, HeCon Ab = 100	B13
84.3 relative, HeCon Ab = 100	B14
77.9 relative, HeCon Ab = 100	B15
82.3 relative, HeCon Ab = 100	B16
57.8 relative, HeCon Ab = 100	B17
98 relative, HeCon Ab = 100	B18
61.3 relative, HeCon Ab = 100	B19
86.3 relative, HeCon Ab = 100	B20
91.5 relative, HeCon Ab = 100	B21
98.9 relative, HeCon Ab = 100	B22
47.6 relative, HeCon Ab = 100	B23
